Experimental data from patent publication US20110229521A1, “NUTRITIONAL SUPPORT OF THE IMMUNE SYSTEM DURING ANTI-CANCER TREATMENT” (priority 2008, published 2011).

Experiment: Body weight, haematological evaluation and flow cytometry of tumor-bearing mice on supplemented diets with chemotherapy (Example 2)
Assay type: in vivo, C57BL/6 (H-2b) mice
Description: Mice. […] The animals were distributed into 7 different group diets. There was a control group that received the diet AIN 93 for adult rodents (maintenance). […] Control animals without chemotherapeutic treatment were run in parallel for all tested diets. Body weight was assessed every two days. Blood samples were obtained at day 2, 4 and 10 after the chemo-treatment and at sacrifice (14 or 28 days). An autopsy was performed and tumor mass was assessed.
Haematological evaluation.
Flow cytometric analysis.

B1: lactoferrin: diet with 25 mg/day of lactoferrin (protein, UniProt P24627 20-708, looked up)
Lactotransferrin: APRKNVRWCTISQPEWFKCRRWQWRMKKLGAPSITCVRRAFALECIRAIAEKKADAVTLDGGMVFEAGRDPYKLRPVAAEIYGTKESPQTHYYAVAVVKKGSNFQLDQLQGRKSCHTGLGRSAGWIIPMGILRPYLSWTESLEPLQGAVAKFFSASCVPCIDRQAYPNLCQLCKGEGENQCACSSREPYFGYSGAFKCLQDGAGDVAFVKETTVFENLPEKADRDQYELLCLNNSRAPVDAFKECHLAQVPSHAVVARSVDGKEDLIWKLLSKAQEKFGKNKSRSFQLFGSPPGQRDLLFKDSALGFLRIPSKVDSALYLGSRYLTTLKNLRETAEEVKARYTRVVWCAVGPEEQKKCQQWSQQSGQNVTCATASTTDDCIVLVLKGEADALNLDGGYIYTAGKCGLVPVLAENRKSSKHSSLDCVLRPTEGYLAVAVVKKANEGLTWNSLKDKKSCHTAVDRTAGWNIPMGLIVNQTGSCAFDEFFSQSCAPGADPKSRLCALCAGDDQGLDKCVPNSKEKYYGYTGAFRCLAEDVGDVAFVKNDTVWENTNGESTADWAKNLNREDFRLLCLDGTRKPVTEAQSCHLAVAPNHAVVSRSDRAAHVKQVLLHQQALFGKNGKNCPDKFCLFKSETKNLLFNDNTECLAKLGGRPTYEEYLGTEYVTAIANLKKCSTSPLLEACAFLTR
In the case of B1, the “toxicity (bone marrow)” value (chemotherapy treated group compared to the control, FIG. 11) is reported as “less toxicity”, the Global lymphocyte population (following chemotherapy, supplemented diet) is reported as “less depressed following chemotherapy” and the leukocytic increase (oxaliplatin treated animals, supplemented diet) is reported as “tended to be higher”. The “immune cell population / concentration” value (second phase (tumor-induced toxicity)) was “increase in their immune cell population”.
